Reference: patent US6323185
pIC50: −log10 of the molar value.

Experiments:
[1] = target: HIV-1 integrase wild-type (IN1-288) (HIV-1) (UniProt P12497); test: inhibition; details: 3'-processing
[2] = target: T1, SIV integrase (Simian immunodeficiency virus) (UniProt P05897); test: inhibition; details: PS at first and last internucleoside linkages, 3'-OH; 3'-processing
T1 sequence: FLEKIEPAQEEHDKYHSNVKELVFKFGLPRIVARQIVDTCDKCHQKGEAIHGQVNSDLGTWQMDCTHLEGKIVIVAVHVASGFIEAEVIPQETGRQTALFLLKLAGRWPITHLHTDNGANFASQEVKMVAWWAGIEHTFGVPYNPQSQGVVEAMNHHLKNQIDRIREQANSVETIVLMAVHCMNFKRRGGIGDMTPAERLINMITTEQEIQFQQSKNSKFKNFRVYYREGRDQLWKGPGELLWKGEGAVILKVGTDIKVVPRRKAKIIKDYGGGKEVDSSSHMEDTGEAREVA

Question: With “TCTTCCTCTCTCTACCCACGCTCIC [T30531 antisense GEM91 variant PT]” as the sequence, how does the pIC50 ([1]; all PS, strand transfer 0.036 uM) read?
Answer: 7.52

Question: With “TCTTCCTCTCTCTACCCACGCTCIC [T30658 antisense GEM91 variant PD]” as the sequence, how does the pIC50 ([1]; all phosphodiester, strand transfer >0.5 uM) read?
Answer: < 6.30

Question: “GTGGTGGGTGGGTGGGT [T30177 (AR177, Zintevir)]” was tested. Which pIC50 [2] did it give?
Answer: 6.38

Question: With “TCTTCCTCTCTCTACCCACGCTCIC [T30662 antisense GEM91 variant pPT]” as the sequence, how does the pIC50 ([1]; PS at first and last linkages, strand transfer >0.5 uM) read?
Answer: < 6.30
